Laboratory results published in patent EP4778941A1 (Jiangsu Hengrui Pharmaceuticals Co., Ltd., dated 2025).
Where a chain is given by its changes, count along the chain named. Like-named read-outs stand apart in the source and are kept apart here. One block for each binder: values may come before it.

Assays:
[1] = target: T1, Human HER3 protein on the cell surface (human, UniProt P21860 20-1342); experiment: cell-based or functional assay
[2] = target: T1, Human HER3 protein on the cell surface; experiment: FACS on MDA-MB-453 cells (HER3 single-positive)
[3] = target: Human HER3 and MET proteins together on HER3/MET double-positive cells (human, UniProt P21860 20-1342; P08581 25-1390); experiment: cell-based or functional assay
[4] = target: T2, Human MET protein on the cell surface (human, UniProt P08581 25-1390); experiment: FACS on NCI-H1975 cells (MET single-positive), FIG. 3
T2 construct: whole, on cells; also called MET single-positive cells (NCI-H1975, NCI-H1703)

[5] = target: T3, His-tagged human HER3 antigen (human, UniProt P21860 20-643); experiment: SPR, Biacore 8K, protein A chip; ADC captured, His-tagged antigen 6.25-400 nM as analyte; 1:1 Langmuir
T3 construct: Soluble antigen used as analyte in SPR; not shown: His tag

[6] = target: T4, His-tagged human MET antigen (human, UniProt P08581 25-932); experiment: as above
T4 construct: Soluble antigen used as analyte in SPR; not shown: His tag

[7] = target: T3, His-tagged human HER3 antigen; experiment: as above; remark: listed apart in the source
[8] = target: T2, Human MET protein on the cell surface; experiment: cell-based or functional assay
[9] = target: T4, His-tagged human MET antigen; experiment: SPR, Biacore 8K; antibody captured, His-tagged human MET antigen 6.25-400 nM as analyte; 1:1 Langmuir
[10] = target: T2, Human MET protein on the cell surface; experiment: FACS on NCI-H1703 cells (MET single-positive)
[11] = target: T1, Human HER3 protein on the cell surface; experiment: cell-based or functional assay; remark: listed apart in the source
[12] = target: T1, Human HER3 protein on the cell surface; experiment: FACS on HCC827 Osimertinib-resistant cells (HER3/MET double-positive)
[13] = target: T1, Human HER3 protein on the cell surface; experiment: cell-based or functional assay; remark: listed apart in the source
[14] = target: T3, His-tagged human HER3 antigen; experiment: SPR, Biacore 8K; antibody captured, His-tagged human HER3 antigen 6.25-400 nM as analyte; 1:1 Langmuir
[15] = target: T2, Human MET protein on the cell surface; experiment: cell-based or functional assay; remark: listed apart in the source

T2 sequence (P08581 25-1390): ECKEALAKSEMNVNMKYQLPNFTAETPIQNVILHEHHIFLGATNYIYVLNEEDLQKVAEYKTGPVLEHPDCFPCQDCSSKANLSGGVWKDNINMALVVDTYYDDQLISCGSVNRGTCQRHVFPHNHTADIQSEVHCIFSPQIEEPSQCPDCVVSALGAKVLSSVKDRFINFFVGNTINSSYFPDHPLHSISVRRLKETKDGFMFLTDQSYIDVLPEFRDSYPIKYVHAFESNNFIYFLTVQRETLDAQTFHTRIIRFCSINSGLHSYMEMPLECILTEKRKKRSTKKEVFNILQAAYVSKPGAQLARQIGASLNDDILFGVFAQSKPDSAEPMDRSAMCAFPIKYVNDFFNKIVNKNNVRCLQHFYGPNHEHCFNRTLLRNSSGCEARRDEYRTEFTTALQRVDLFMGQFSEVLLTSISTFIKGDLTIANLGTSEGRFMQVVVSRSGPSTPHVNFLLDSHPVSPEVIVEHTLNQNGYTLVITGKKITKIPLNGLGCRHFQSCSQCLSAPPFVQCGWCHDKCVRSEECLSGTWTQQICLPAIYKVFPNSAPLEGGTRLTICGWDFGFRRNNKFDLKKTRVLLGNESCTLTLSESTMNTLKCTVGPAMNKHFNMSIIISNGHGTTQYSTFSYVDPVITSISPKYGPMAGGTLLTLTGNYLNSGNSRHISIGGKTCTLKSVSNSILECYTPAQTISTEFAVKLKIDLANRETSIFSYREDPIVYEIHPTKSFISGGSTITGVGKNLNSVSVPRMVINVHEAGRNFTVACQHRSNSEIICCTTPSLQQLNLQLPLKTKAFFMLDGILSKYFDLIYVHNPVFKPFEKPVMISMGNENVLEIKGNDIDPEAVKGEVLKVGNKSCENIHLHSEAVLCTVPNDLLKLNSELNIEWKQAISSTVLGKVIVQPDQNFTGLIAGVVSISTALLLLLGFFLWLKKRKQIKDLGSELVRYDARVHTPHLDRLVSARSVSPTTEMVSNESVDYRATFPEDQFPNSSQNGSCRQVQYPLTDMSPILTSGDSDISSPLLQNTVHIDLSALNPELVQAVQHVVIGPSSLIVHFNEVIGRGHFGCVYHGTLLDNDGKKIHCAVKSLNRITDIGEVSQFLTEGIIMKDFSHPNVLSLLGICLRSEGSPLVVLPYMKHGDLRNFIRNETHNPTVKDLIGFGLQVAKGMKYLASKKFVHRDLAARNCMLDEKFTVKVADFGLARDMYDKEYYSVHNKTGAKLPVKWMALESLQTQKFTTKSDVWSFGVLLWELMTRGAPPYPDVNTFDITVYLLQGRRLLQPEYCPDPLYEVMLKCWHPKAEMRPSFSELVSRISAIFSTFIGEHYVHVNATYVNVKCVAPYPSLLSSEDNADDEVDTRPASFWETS
T4 sequence (P08581 25-932 limits assumed): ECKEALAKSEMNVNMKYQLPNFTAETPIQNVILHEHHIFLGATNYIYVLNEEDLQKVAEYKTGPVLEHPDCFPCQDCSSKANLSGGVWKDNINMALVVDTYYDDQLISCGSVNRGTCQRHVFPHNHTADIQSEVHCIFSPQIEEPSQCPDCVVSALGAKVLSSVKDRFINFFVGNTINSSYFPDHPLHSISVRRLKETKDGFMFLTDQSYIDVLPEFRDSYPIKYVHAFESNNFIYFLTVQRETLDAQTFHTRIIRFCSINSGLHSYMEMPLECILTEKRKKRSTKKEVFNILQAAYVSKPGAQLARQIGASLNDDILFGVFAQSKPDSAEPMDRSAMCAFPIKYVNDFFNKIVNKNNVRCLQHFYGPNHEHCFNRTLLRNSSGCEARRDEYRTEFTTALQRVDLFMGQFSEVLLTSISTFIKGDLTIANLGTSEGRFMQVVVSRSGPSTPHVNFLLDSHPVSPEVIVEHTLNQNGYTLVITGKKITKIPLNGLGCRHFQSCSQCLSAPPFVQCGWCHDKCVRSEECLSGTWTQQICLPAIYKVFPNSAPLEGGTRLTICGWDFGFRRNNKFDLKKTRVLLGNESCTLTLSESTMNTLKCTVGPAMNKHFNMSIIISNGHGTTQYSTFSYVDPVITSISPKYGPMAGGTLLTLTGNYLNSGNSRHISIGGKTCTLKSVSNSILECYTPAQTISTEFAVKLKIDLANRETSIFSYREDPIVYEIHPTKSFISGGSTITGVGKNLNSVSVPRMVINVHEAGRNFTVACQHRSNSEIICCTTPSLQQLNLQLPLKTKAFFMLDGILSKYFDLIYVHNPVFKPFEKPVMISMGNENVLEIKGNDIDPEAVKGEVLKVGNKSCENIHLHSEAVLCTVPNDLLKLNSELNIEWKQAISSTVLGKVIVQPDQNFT

B2: Anti-HER3/MET bispecific antibody P3-A (bispecific antibody, human IgG1, kappa)
heavy 1: not shown
light 1: QAVLTQPSSVSGAPGQRVTISCTGSSSNIGAGYDVHWYQQLPGTAPKLLIYGNSNRPSGVPDRFSGSKSGTSASLAITGLQAEDEADYYCQSYDSSLSGVFGTGTQLTVLGGGGSGIPPKIECLPIDISIDEGKVLTVASAFTGEPTPEVTWSTGGRKIHSQEQGRFHIENTDDSTTLTIKDVQKQDGGLYTLTLRNEFGSDSATVNIHIRSI
heavy 2: QVQLVQSGGGLVQPGRSLRLSCAASGFTFDDYAMHWVRQAPGKGLEWVSGISWNSGSIGYADSVKGRFTISRDNAKNSLYLQMNSLRAEDTALYYCAKEGLPGLDYWGQGTLVTVSSASTKGPSVFPLAPSSKSTSGGTAALGCLVKDYFPEPVTVSWNSGALTSGVHTFPAVLQSSGLYSLSSVVTVPSSSLGTQTYICNVNHKPSNTKVDKKVEPKSCDKTHTCPPCPAPELLGGPSVFLFPPKPKDTLMISRTPEVTCVVVDVSHEDPEVKFNWYVDGVEVHNAKTKPREEQYNSTYRVVSVLTVLHQDWLNGKEYKCKVSNKALPAPIEKTISKAKGQPREPQVCTLPPSREEMTKNQVSLSCAVKGFYPSDIAVEWESNGQPENNYKTTPPVLDSDGSFFLVSKLTVDKSRWQQGNVFSCSVMHEALHNHYTQKSLSLSPGK
light 2: DIQMTQSPSSLSASIGDRATITCRASQHVGTYLNWYQQKPGKTPKLLISGAANLQSGVPSRFSGSGSGTDFTLTISSLQPEDFATYYCQQSYNTPPFSFGQGTKVEIKRTVAAPSVFIFPPSDEQLKSGTASVVCLLNNFYPREAKVQWKVDNALQSGNSQESVTEQDSKDSTYSLSSTLTLSKADYEKHKVYACEVTHQGLSSPVTKSFNRGEC
Minimum cell viability (%) [3]: 16.4%
binding result [4]: binds

B3: Anti-HER3/MET bispecific antibody A9-A (bispecific antibody, human IgG1, kappa)
heavy 1: not shown
light 1: EIVLTQSPGTLSLSPGERATLSCRASQSVSNNYLAWYQQKPGQAPRLLIFGASSRATGIPDRFSGSGSGTDFTLTISRLEPEDFAVYYCQQYDISPMYSFGQGTKLEMKGGGGSGIPPKIECLPIDISIDEGKVLTVASAFTGEPTPEVTWSTGGRKIHSQEQGRFHIENTDDSTTLTIKDVQKQDGGLYTLTLRNEFGSDSATVNIHIRSI
heavy 2: B2 heavy 2
light 2: B2 light 2
Minimum cell viability (%) [3]: 15.9%
binding result [4]: binds

B4: Anti-HER3/MET antibody-drug conjugate ADC-2 (bispecific antibody, human IgG1, kappa)
heavy 1: not shown
light 1: DIVLTQSPDSLAVSLGERATINCRADKSVSTSTYNYLHWYQQKPGQPPKLLIYLASNLASGVPDRFSGSGSGTDFTLTISSLQAEDVAVYYCQHSRDLPPTFGQGTKLEIKGGGGSGIPPKIECLPIDISIDEGKVLTVASAFTGEPTPEVTWSTGGRKIHSQEQGRFHIENTDDSTTLTIKDVQKQDGGLYTLTLRNEFGSDSATVNIHIRSI
heavy 2: B2 heavy 2
light 2: B2 light 2
modifications: compound 9-A on reduced cysteines, positions not given; compound 9-A (exatecan derivative linker-drug) on reduced cysteines, positions not given; target DAR 6 for the whole molecule
notes: target DAR 6; distribution of the drug over the chains not reported for ADC-2
Kd [5]: 19.7 nM
koff [5]: 0.0108 s⁻¹
kon [5]: 546000 M⁻¹ s⁻¹

B5: Anti-HER3/MET bispecific antibody 5D5-A (bispecific antibody, human IgG1, kappa)
heavy 1: not shown
light 1: DIQMTQSPSSLSASVGDRVTITCKSSQSLLYTSSQKNYLAWYQQKPGKAPKLLIYWASTRESGVPSRFSGSGSGTDFTLTISSLQPEDFATYYCQQYYAYPWTFGQGTKVEIKGGGGSGIPPKIECLPIDISIDEGKVLTVASAFTGEPTPEVTWSTGGRKIHSQEQGRFHIENTDDSTTLTIKDVQKQDGGLYTLTLRNEFGSDSATVNIHIRSI
heavy 2: B2 heavy 2
light 2: B2 light 2
Minimum cell viability (%) [3]: 20.5%
binding result [4]: binds

B6: Anti-HER3/MET antibody-drug conjugate ADC-5 (bispecific antibody, human IgG1, kappa)
heavy 1: not shown
light 1: DIQMTQSPSSVSASVGDRVTITCRASQGISTWLAWYQQKPGKAPKLLIYAASSLKSGVPSRFSGSGSGTDFTLTISSLQPEDFATYYCQQANSFPLTFGGGTKVEIKGGGGSGIPPKIECLPIDISIDEGKVLTVASAFTGEPTPEVTWSTGGRKIHSQEQGRFHIENTDDSTTLTIKDVQKQDGGLYTLTLRNEFGSDSATVNIHIRSI
heavy 2: B2 heavy 2
light 2: B2 light 2 with T94V
modifications: compound 9-A on reduced cysteines, positions not given; compound 9-A (exatecan derivative linker-drug) on reduced cysteines, positions not given; average DAR 5.87 for the whole molecule
Kd [6]: 13.1 nM
koff [6]: 0.000872 s⁻¹
kon [6]: 66500 M⁻¹ s⁻¹
Kd [7]: 14.3 nM
koff [7]: 0.00721 s⁻¹
kon [7]: 505000 M⁻¹ s⁻¹

B8: Anti-HER3 antibody A (antibody, human IgG1, kappa, V domains shown)
VH: QVQLVQSGGGLVQPGRSLRLSCAASGFTFDDYAMHWVRQAPGKGLEWVSGISWNSGSIGYADSVKGRFTISRDNAKNSLYLQMNSLRAEDTALYYCAKEGLPGLDYWGQGTLVTVSS
VL: DIQMTQSPSSLSASIGDRATITCRASQHVGTYLNWYQQKPGKTPKLLISGAANLQSGVPSRFSGSGSGTDFTLTISSLQPEDFATYYCQQSYNTPPFSFGQGTKVEIKR
Maximum fluorescence value [10]: 81
Endocytosis ratio at 0 h (FACS) [11]: 0%
Endocytosis ratio at 0.5 h (FACS) [11]: 55.5%
Endocytosis ratio at 2 h (FACS) [11]: 80%
Endocytosis ratio at 6 h (FACS) [11]: 82.2%
EC50 [12]: 2.06 nM
Maximum fluorescence value [12]: 1020
Minimum cell viability (%) [1]: 28.5%
Minimum cell viability (%) [13]: 63.8%
Kd [14]: 14.5 nM
koff [14]: 0.0103 s⁻¹
kon [14]: 707000 M⁻¹ s⁻¹
Minimum cell viability (%) [15]: 77.8%
EC50 [2]: 0.48 nM
Maximum fluorescence value [2]: 1860

More lines, main results first:

Maximum fluorescence value [2]: 77
B1: Anti-MET antibody S3 (antibody, human IgG2, kappa, V domains shown)
VH: QVQLVESGGGVVQPGRSLRLSCAASGFSLSNYGVHWVRQAPGKGLEWLAVIWSGGSTNYAAAFVSRLTISKDNSKNTVYLQMNSLRAEDTAVYYCARNHDNPYNYAMDYWGQGTTVTVSS
VL: DIVLTQSPDSLAVSLGERATINCRADKSVSTSTYNYLHWYQQKPGQPPKLLIYLASNLASGVPDRFSGSGSGTDFTLTISSLQAEDVAVYYCQHSRDLPPTFGQGTKLEIKR
Minimum cell viability (%) [1]: 97.3%

Endocytosis ratio at 0 h (FACS) [8]: 0%
Endocytosis ratio at 0.5 h (FACS) [8]: 25.7%
Endocytosis ratio at 2 h (FACS) [8]: 45.7%
Endocytosis ratio at 6 h (FACS) [8]: 57.6%
Kd [9]: 6.55 nM
koff [9]: 0.000614 s⁻¹
kon [9]: 93800 M⁻¹ s⁻¹
B7: Anti-MET antibody A13 (antibody, human IgG1, kappa, V domains shown)
VH: QVQLVQSGAEVKKPGASVKVSCEASGYTFTSYGFSWVRQAPGQGLEWMGWISASNGNTYYAQKLQGRVTMTTDTSTSSAYMELRSLRSDDTAVYYCARVYADYADYWGQGTLVTVSS
VL: DIQMTQSPSSVSASVGDRVTITCRASQGINTWLAWYQQKPGKAPKLLIYAASSLKSGVPSRFSGSGSGADFTLTISSLQPEDFATYYCQQANSFPLTFGGGTKVEIKR

Maximum fluorescence value [10]: 90
EC50 [12]: 0.46 nM
Maximum fluorescence value [12]: 1240
EC50 [2]: 0.25 nM
Maximum fluorescence value [2]: 1990
B9: Naked antibody of the control antibody U3-1402 (U3-1402 Ab) (antibody, human IgG1, kappa, V domains shown)
VH: QVQLQQWGAGLLKPSETLSLTCAVYGGSFSGYYWSWIRQPPGKGLEWIGEINHSGSTNYNPSLKSRVTISVETSKNQFSLKLSSVTAADTAVYYCARDKWTWYFDLWGRGTLVTVSS
VL: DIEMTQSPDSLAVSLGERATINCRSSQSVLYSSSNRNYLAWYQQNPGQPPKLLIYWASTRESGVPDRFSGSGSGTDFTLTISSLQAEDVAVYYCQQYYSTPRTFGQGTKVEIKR
notes: Anti-HER3 control
Minimum cell viability (%) [1]: 63.9%
Minimum cell viability (%) [13]: 73.6%
Minimum cell viability (%) [15]: 72.9%
